Earlier results in article PMC3526765.

Target: Cys30 (UniProt position 49, FFSFFCPHCYQ)
Details: reduced DsbA (free Cys30 thiol/thiolate); inferred from context, not stated explicitly

## Thiol:disulfide interchange protein DsbA (EcDsbA) (Escherichia coli (K12))
  pKa: ~3.3
